{
  "source": "the DeepSol protein solubility set",
  "test": "soluble on expression in E. coli; label from the status in PepcDB or PDB records",
  "data": [
    {"sequence": "MSLKKNFALEKKKELQEMTNSAVRRVLDFKKDPNKVIELLNFMARSPQYSFKNQMMVSSQYENSNFTMGSRQFKETMGLKVNENATPIKIVAPVMNTFFKRNDKLVQLRFANKEEKEKIKNKEIKTIQNVWYYKLVDVYDITQTNAKPEDFPEYYPDRRYNFYVKNTEVIDDIISANKKLLKDNNIHLIENHTYNQLGTSVGFAGKNLTGDKIVGYRDGLNKTEILHTLLHETTHAFYHQKENPEKTTELKEFEAEMTAYIVAKRFGVDTSEHTIKYVSDWTESMSKIEDIEQSIKTVSMYSSRIINDIEKQIDPVKIKEGHHHHHH", "values": [
      {"measurement": "soluble on expression in E. coli", "result": "not soluble"}
    ]},
    {"sequence": "MTMLKNNLELLKKRYPEIYNEIKDIHVDSNAYQIIQNNEGQKTLKVTLDLYGENKSFFLHSKYHPDVEADRFAREQYKPEFSIQILYGFGLGYHVEKIAGLLKPDSMLYVIENNLMVFRSALENMDLCPILENRNVSLIVSKDVGYISEKVKELIDNNLDKVSFITHPASLKAIPEENEYFKFVMENWNLKKSITDDYDNTLRNNAKENLKLNSPNVGIFFDKFKDVPIIIVSTGPSLDKNIDLLKEAKGRALIISAGSALRPLLMRNIKPDFFAIIDPQDITYNQIKGYENIGIPFIYLVTAASYTVSRYLGPKLVAYYGKYNNSSEHLVDSGGSVATTILDIAIKMGGNPIILVGQDLAYVDGKNHAQYGSHASIYSPELKNMRRVKGQNGEMLYTSLGLLSYKYWIENRIQKEKRIFINATEGGAYIEGMKHIKLRDVISDYLKESFDFENKIKSILKESGIQHVQG", "values": [
      {"measurement": "soluble on expression in E. coli", "result": "soluble"}
    ]},
    {"sequence": "MKLSGGVEWALHCCVVLSQAESPVPTARLAELHGVSKTYLAKHLQSLARAGLVHPTEGRDGGYVLTRAPEAITVLDVVQAVDGTEPAFRCTEIRRQGVLAAPPEQCRSACGIAKVMAGAEQAWRASLSSVTIADLGATIDLTVLKHILATSTT", "values": [
      {"measurement": "soluble on expression in E. coli", "result": "not soluble"}
    ]},
    {"sequence": "RRAELNTNETDESEKVIEGYFAVFNSETELFPGAFEEILPGAFDNTLENDVRALINHDTALVLGRNVSKTLSLRVDDKGLWGQIKINPLDSDAINLYERVKRGDVSQCSFGFNIIKEQEEWRDDGSVKWSLEEVELHEVSVCTFPAY", "values": [
      {"measurement": "soluble on expression in E. coli", "result": "not soluble"}
    ]},
    {"sequence": "TSRNYLLLTPGPLTTSRTVKEAMLFDSCTWDDDYNIGVVEQIRQQLTALATASEGYTSVLLQGSGSYAVEAVLGSALGPQDKVLIVSNGAYGARMVEMAGLMGIAHHAYDCGEVARPDVQAIDAILNADPTISHIAMVHSETTTGMLNPIDEVGALAHRYGKTYIVDAMSSFGGIPMDIAALHIDYLISSANKCIQGVPGFAFVIAREQKLAACKGHSRSLSLDLYAQWRCMEDNHGKWRFTSPTHTVLAFAQALKELAKEGGVAARHQRYQQNQRSLVAGMRALGFNTLLDDELHSPIITAFYSPEDPQYRFSEFYRRLKEQGFVIYPGKVSQSDCFRIGNIGEVYAADITALLTAIRTAMYWTK", "values": [
      {"measurement": "soluble on expression in E. coli", "result": "soluble"}
    ]},
    {"sequence": "MPVKKESNAELDLDWRCRDGSSLVASLQPKPDPQKTGNYRKAKVSTTVSIPTAKATGNAPKYLPPHLRNRQESENKEEDDESECNSDTEKHSVISDQFSDSVDETSVKKIRIHWRGRRWTRGIECIGVQVDSQITRYSKLDDKCVRKSNSGRETTQTGCISDFAFAEVARLLKTPEIELELFAVDVPPFIQGEPRESYFNAMEKTFNLENVTRVNAKRVRLIGLTISEMEAVLKWVSVENLVVIRVYSGKNSIDERGAIVIQNMLSIFPQLQVGSFHMIVSNPLGVAKTFDEIYSDRLVKTPIILKGLDEEPKFNMKITSCDIQVRRESKKKKVTQI", "values": [
      {"measurement": "soluble on expression in E. coli", "result": "not soluble"}
    ]},
    {"sequence": "KKKKKKDPNEPQKPVSAYALFFRDTQAAIKGQNPNATFGEVSKIVASMWDGLGEEQKQVYKKKTEAAKKEYLKQLAAYRASLVSKSYTD", "values": [
      {"measurement": "soluble on expression in E. coli", "result": "soluble"}
    ]},
    {"sequence": "ANLYWFRADWFDDADTKAAFKEKYGYDLGVPLNWSAYEDIAEFFTGRDMSALGGPKSAYGSMDYGKKDPSLGWRYTDAWMSMAGMGDKGDPNGLPVDEWGIRVDENSRPVGSCVARGGATNDAAAVYAITKSIEWLQKYAPPQAAGMTFSESGPVPAQGEVAQQIFWYTAFTADMVKEGLPVMNEDGTPKWRMAPSPHGAYWSEGTKVGYQDVGSWTLLKSTPDERAKAAWLYAQFVSSKTVDVKKSHVGLTFVRESTIQHQ", "values": [
      {"measurement": "soluble on expression in E. coli", "result": "not soluble"}
    ]},
    {"sequence": "MAHHHHHHMIRRKLYCSFLFLAILETFKVNQRWSIFISAWYAHEDVDSDYSHSKLYEVLGVHKYATTEEIKKAYRKLSKKYHPDKAKDKNSNNRFNEIAEAYEILGDEEKRKVYDHHGLEAAKNVESNKMDEDPTDHFNIYESFFGGAGGFRREEMKKADSLTLNVEMSLEQLYNGDFFSVIYTRDVNCLRSDDCIMKKKECSGKGYKTVTQQVAPGFIMQNKMRDENCIDRGKAWNPKCSYCPNGMKEEKTIELTLEVEKGMKNNDKIVFEKKGKQEIGYESGDVIFVIQTKKHKVYERKNNDLHQFYEISLKDALIGFSKDIDHISGAPIRINKQTVTFHNEILKVQNKGMPIRDSSKYGDLYIKFLVQFPKYLTEEQKRAISQFL", "values": [
      {"measurement": "soluble on expression in E. coli", "result": "not soluble"}
    ]},
    {"sequence": "MGSDKIHHHHHHMQDLNDLYYFVQVVKHGGFAPAGRALGIPKSKLSRRITQLEERLDTRLIHRSTRRFSVTELGQAYYRHSVAMLVEAEAAEELIQRHHAEPQGTVRLSCSPSVLHYLITPLLVRFMARCPKVEVQVEATSRRVDVIKEGFDLAIRVRFPPLEDSDLTMKVLASSPQRLMAAPSLFAERPRPRSPADLVELPSLDFEQYDHRHCWDLVGPNGASAQVPHWPRLVTDSAETLHAAALEGLGVVKLGLLVGARDIQEGRLIDVLPGWEPRGGILHAAFPSRRGLLPAVRALLDFLDEQIADEDFDTQEALINSSPRG", "values": [
      {"measurement": "soluble on expression in E. coli", "result": "not soluble"}
    ]},
    {"sequence": "MGSDKIHHHHHHMELVDKDLRSIQETRNLIRKAKEAQQVLATFSQKQIDAIVQAVSEATFNQREKLAKMANEETGFGIYEDKIIKNAFASKVVYDEMKDKATVGVIHDDAAKKVTEIAVPVGVIAGLIPSTNPTSTVIYKALISLKAANSIVFSPHPNALKSIIETVEIIQKAAIAAGAPEGCVSVIKTPTMQATSELMKNKETNLILATGGNAMVKAAYSSGTPAIGVGPGNGPAYIERSANVPHAVKQIMDSKTFDNGTICASEQSIIVETVNREAVKEELIKQGAYFLSPAEADKLAKFILRPNGTMNPQIVGRSVQHIASLVGLSIPKDRRLIVAEETHVGLKYPFSREKLAPIIAFYTVENWEAACALSIEILKGEGAGHTMGIHTENKEVIREFGLRKPVSRLLVNTSGTLGGIGASTNLVPALTLGCGAVGGSSTSDNIGVENLFNLRRVAYGVRDLEEIRQEFGQTSTTSVATSCETTNQEELVNAVVAQVLARLN", "values": [
      {"measurement": "soluble on expression in E. coli", "result": "not soluble"}
    ]},
    {"sequence": "MKVVVQIKDFDKVPQALRSVINLYNDIKDAEIEVVLHQSAIKALLKDSDTRSIIEDLIKKNILIVGCENSIRSQNLSHDQLIPGIKIVTSGVGEIVRKQSEGWIYLAL", "values": [
      {"measurement": "soluble on expression in E. coli", "result": "soluble"}
    ]},
    {"sequence": "VTPVTTFPLVDAILAGRDRNLDGVILIAAQHLLQTTHAMLRSLFRVGLDPRNVAVIGKCYSTHPGVVDAMRADGIYVDDCSDAYAPHESFDTQYTRHVERFFAESWARLTAGRTARVVLLDDGGSLLAVAGAMLDASADVIGIEQTSAGYAKIVGCALGFPVINIARSSAKLLYESPIIAARVTQTAFERTAGIDSSAAILITGAGAIGTALADVLRPLHDRVDVYDTRSGCMTPIDLPNAIGGYDVIIGATGATSVPASMHELLRPGVLLMSASSSDREFDAVALRRRTTPNPDCHADLRVADGSVDATLLNSGFPVNFDGSPMCGDASMALTMALLAAAVLYASVAVADEMSSDHPHLGLIDQGDIVASFLNIDVPLQALSRLPLLSIDGYRRLQVRSGYTLFRQGERADHFFVIESGELEALVDGKVILRLGAGDHFGEACLLGGMRRIATVRACEPSVLWELDGKAFGDALHGDAAMREIAYGVARTRLMHAGASESLMV", "values": [
      {"measurement": "soluble on expression in E. coli", "result": "not soluble"}
    ]},
    {"sequence": "MSLVLRKRSMKLGDLKVHTLAIPLREPIQFSWEPFPHPVYVFSIVEVEAGGFKGYSAIEFGAAYKHFLETTVKLTIQGLDIEIEDVDARLLEVGSWAIQRLGALEVAIWDLIAKREGLPLYRLLGGGRRKVKVYASTGRLLSAEETVKMVEKYAELGIDVVKLRFRRERINEDLEVLKAVAREFSDVKISVDANQAWSYTPPYWSRKKAMKVAKELENFEVLWLEEPLWKDDVEGYRWLRENTSIEISGGELEHGIQRFRMLIEGGAFDIVQADAVYSNGIQECRKVAALAEAFNLKFMPHAWDPGLGWLANLHLAASLPEKLCPYIETPLDPLWWNEVMFGVLNGEVELEKGYAKLPEQPGLGFEPDEEKMKKFRIAEGHHHHHH", "values": [
      {"measurement": "soluble on expression in E. coli", "result": "not soluble"}
    ]}
  ]
}
